Laboratory results reported in paper PMC3000613 (Biochemistry, 2010).

Key:
GST-Obsc_(6231–6260) = molecular target: T1, GST-Obsc_(6231–6260) (rat); experiment: SPR
T1 chain: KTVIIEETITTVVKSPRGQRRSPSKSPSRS

GST-Obsc_(6316–6345) = GST-Obsc_(6316–6345) (rat); experiment: SPR

Kd (GST-Obsc_(6231–6260)): 384 ± 53 nM | Kd (GST-Obsc_(6316–6345)): 133 nM | koff (GST-Obsc_(6316–6345)): 0.000792 s⁻¹ | kon (GST-Obsc_(6316–6345)): 6290 M⁻¹ s⁻¹
B1: MBP-sAnk1_(29–155) (domain or fragment)
chain: VKGSLCFVLKHIHQELDKELGESEGLSDDEETISTRVVRRRVFLKGDELQNIPGEQVTEEQFTDEQGNIVTKKIIRKVVRQVDSSGAIDTQQHEEVELRGSGLQPDLIEGRKGAQIVKRASLKRGKQ
